This note sets out measurements from PMC3815341.

Data set [1] concerns CCCC(=O)Oc1ccc([N+](=O)[O-])cc1. In words: purified protein. The note with it: pH 7, 37°C.
The subject of data set [2] is CCCCCC(=O)Oc1ccc([N+](=O)[O-])cc1. In words: purified protein. Conditions: pH 7, 37°C.
For data set [3], the system named is CCC(=O)Oc1ccc([N+](=O)[O-])cc1. Description: purified protein. Conditions: pH 7, 37°C.
Data set [4] relates to CC(=O)Oc1ccc([N+](=O)[O-])cc1. Description: purified protein. Conditions: pH 7, 37°C.
Substrate in data set [5]: CCC(=O)Oc1ccc([N+](=O)[O-])cc1
In words: pNP release, initial rates, Michaelis-Menten fit. The data set is classed as biochemical, Rhodopseudomonas palustris. The note with it: pH 9, 37°C.

Substrate in data set [6]: CC(=O)Oc1ccc([N+](=O)[O-])cc1
In words: pNP release, initial rates, Michaelis-Menten fit. The data set is classed as biochemical, Rhodopseudomonas palustris. The note with it: pH 9, 37°C.

Substrate in data set [7]: CCCC(=O)Oc1ccc([N+](=O)[O-])cc1
Description: pNP release, initial rates, Michaelis-Menten fit. It counts as biochemical, Rhodopseudomonas palustris. Conditions: pH 9, 37°C.

Substrate in data set [8]: CCCCCC(=O)Oc1ccc([N+](=O)[O-])cc1
In words: pNP release, initial rates, Michaelis-Menten fit. Conditions: pH 9, 37°C. The data set is classed as biochemical, Rhodopseudomonas palustris.

Substrate in data set [9]: CC(=O)Oc1ccc([N+](=O)[O-])cc1
In words: pNP release, initial rates, Michaelis-Menten fit. The data set is classed as biochemical, Pseudomonas aeruginosa. The note with it: pH 8, 37°C.

Substrate in data set [10]: CCCCCC(=O)Oc1ccc([N+](=O)[O-])cc1
In words: pNP release, initial rates, Michaelis-Menten fit. It counts as biochemical, Pseudomonas aeruginosa. The note with it: pH 8, 37°C.

Substrate in data set [11]: CCCCCCCCCC(=O)Oc1ccc([N+](=O)[O-])cc1
In words: pNP release, initial rates, Michaelis-Menten fit. The data set is classed as biochemical, Pseudomonas aeruginosa. The note with it: pH 8, 37°C.

Substrate in data set [12]: CCC(=O)Oc1ccc([N+](=O)[O-])cc1
Description: pNP release, initial rates, Michaelis-Menten fit. It counts as biochemical, Pseudomonas putida.

Substrate in data set [13]: CC(=O)Oc1ccc([N+](=O)[O-])cc1
Description: pNP release, initial rates, Michaelis-Menten fit. The data set is classed as biochemical, Pseudomonas putida.

Substrate in data set [14]: CCCCCC(=O)Oc1ccc([N+](=O)[O-])cc1
In words: pNP release, initial rates, Michaelis-Menten fit. Conditions: pH 8, 37°C. The data set is classed as biochemical, Pseudomonas putida.

Substrate in data set [15]: CCCCCCCCCC(=O)Oc1ccc([N+](=O)[O-])cc1
In words: pNP release, initial rates, Michaelis-Menten fit. It counts as biochemical, Pseudomonas putida. The note with it: pH 8, 37°C.

Substrate in data set [16]: CC(=O)Oc1ccc([N+](=O)[O-])cc1
In words: pNP release, initial rates, Michaelis-Menten fit. The data set is classed as biochemical, Streptomyces avermitilis. Conditions: pH 8, 37°C.

As a reminder, the Km is the concentration of substrate that gives half-maximal velocity. In general, kcat refers to the maximal rate divided by the concentration of active sites. Usually kcat/Km stands for the turnover number divided by the Michaelis constant. As to “RpEST-1 (Rhodopseudomonas palustris CGA009)”, the Michaelis-Menten constant (Km) worked out at 500 ± 0 µM in data set [1], 1900 ± 100 µM in data set [2], 1500 ± 100 µM in data set [3] and 300 ± 0 µM in data set [4]. For the same molecule, the catalytic constant (kcat) in [1] was 75.5 ± 1.6 s⁻¹; in [2] it was 217 ± 11.8 s⁻¹; in data set [3], 307 ± 15.3 s⁻¹; in data set [4] it was 65.6 ± 1.5 s⁻¹. For the same molecule, the catalytic efficiency (kcat/Km) in data set [1] worked out at 151000 M⁻¹ s⁻¹; in data set [2] it was 114000 M⁻¹ s⁻¹; in data set [3], 205000 M⁻¹ s⁻¹; in data set [4] it was 219000 M⁻¹ s⁻¹.

B1: RpEST-2 (Rhodopseudomonas palustris CGA009) (protein)
chain: MSEAVMAGAEAFAFDGGKTGVLLVHGFTGSPQSMRYLGERLGERGYSILGPRLPGHGVSPAAMAKTTANDWVNCAEDALLELSAKCDKTFVAGLSMGGTLSLYLAASHPDKVAGVIPINAAVQIDSPDLAGLAYARGLPEFVPGIGSDMVDTSTKELAYDQVPVTCVKQVMGLAATARALLPRIKCPTLVINSRVDHVLSPANATVIANHVGSSRIETLWLDNSYHVATIDNDKDLIAAEIDSFVTRNL
In the case of B1, in data set [5], the Km is 4900 ± 1800 µM, the kcat was 24.4 ± 7.8 s⁻¹ and the specificity constant (kcat/Km) was found to be 4900 M⁻¹ s⁻¹. In [6], the Km is 1400 ± 200 µM, the turnover number (kcat) was determined as 52.7 ± 4.3 s⁻¹ and the kcat/Km amounted to 37600 M⁻¹ s⁻¹.

B2: RpEST-3 (Rhodopseudomonas palustris CGA009) (protein)
chain: MPSFDHAGVNIAYLDEGEGEPILLIHGFASNKNVNWVYPSWLSELKRTGRRVIAIDNRGHGESSKLYDPNDYTLEAMASDAVALMDHLGIARADVMGYSMGARIGANLARRQEQRVRSVVLGGLGMGLLSNEGRPGENVARALEADALDDVTDPVGRTFRAFADQTRSDRKALAACMRGSRGLMSREDAAQIAVPVLIAVGTDDDVAGSAHELGDIIPGSQVLDIPRRDHMRAVGDRVYKEGVVDFLARRP
In the case of B2, in data set [7], the Km was 3600 ± 400 µM, the kcat stood at 7.2 ± 0.7 s⁻¹ and the kcat/Km amounted to 2000 M⁻¹ s⁻¹. Further, in data set [8], the Michaelis-Menten constant (Km) turned out to be 2100 ± 300 µM, the kcat came to 5 ± 0.4 s⁻¹ and the catalytic efficiency (kcat/Km) was 2400 M⁻¹ s⁻¹.

B3: PaEST-1 (Pseudomonas aeruginosa) (protein)
chain: MKRFLLGLVLLLAVAAGVLYFVPATLLASVRTVERGLAGLSEHSVQVDNLEIAYLEGGSEKNPTLLLIHGFGADKDNWLRFARPLTERYHVVALDLPGFGDSSKPQQASYDVGTQAERVANFAAAIGVRRLHLAGNSMGGHIAALYAARHPEQVLSLALIDNAGVMPARKSELFEDLERGENPLVVRQPEDFQKLLDFVFVQQPPLPAPLKRYLGERAVAASAFNAQIFEQLRQRYIPLEPELPKIEAPTLLLWGDRDRVLDVSSIEVMRPLLKRPSVVIMENCGHVPMVERPEETAQHYQAFLDGVRNAQVAGR
On to B3, for which, in data set [9], the Michaelis constant (Km) came out at 1400 ± 200 µM, the kcat was 1.9 ± 0.2 s⁻¹ and the kcat/Km amounted to 1300 M⁻¹ s⁻¹. In data set [10], the Km turned out to be 1400 ± 400 µM, the turnover number (kcat) turned out to be 12.9 ± 2.4 s⁻¹ and the catalytic efficiency (kcat/Km) turned out to be 9200 M⁻¹ s⁻¹. In addition, in data set [11], the Michaelis constant (Km) is 1200 ± 200 µM, the catalytic constant (kcat) worked out at 9.2 ± 1 s⁻¹ and the kcat/Km was determined as 7600 M⁻¹ s⁻¹.

B4: PpEST-3 (Pseudomonas putida KT2440) (protein)
chain: MIQPVAERTPAGTSYLDVGQGQPVVLIHGVGLNKEMWGGQFVGLANDYRVIAYDMLGHGQSRVPAADTPLEGYADQLAELLDHLQIAQATVIGFSMGGLVARAFALNYPQRLAALVVLNSVFNRTPEQSAGVIARAAQAAELGPDANVDAALDRWFSREYKAANPAQVAAIRQVLASNDPQGYHTTYSLFATQDMYRADDLGSIQVPTLIATGELDSGSTPAMTRQLAACIPGARSVVLAEQRHMMPVEAPREVNKMLLDFLTQARTLTESAKGIVA
In the case of B4, the Michaelis constant (Km) worked out at 100 ± 0 µM in [12] (pH 8, 37°C); 1000 ± 100 µM in data set [13] (pH 8, 37°C); 200 ± 0 µM in data set [14]; 800 ± 100 µM in [15]. For the same molecule, the turnover number (kcat) in data set [12] (pH 8, 37°C) stood at 6.8 ± 0.1 s⁻¹; in data set [13] (pH 8, 37°C), 6.2 ± 0.3 s⁻¹; in data set [14] it was 12.1 ± 0.3 s⁻¹; in data set [15], 8.7 ± 0.4 s⁻¹. In addition, the kcat/Km in [12] (pH 8, 37°C) worked out at 67900 M⁻¹ s⁻¹; in data set [13] (pH 8, 37°C) it was 6200 M⁻¹ s⁻¹; in [14], 60400 M⁻¹ s⁻¹; in [15] it was 10900 M⁻¹ s⁻¹.

B5: SavEST-1 (Streptomyces avermitilis MA-4680 = NBRC 14893) (protein)
chain: MTSQHVVGRFFDVQGGQVYAHVREGDGPALIFLHYWGGSRRTWIPVLQRLDPGQGFVAYDQRGWGGSTSVPGPYDLEQLADDAQRVVDALGYSRYVLVGHSMGGKVAQILAARKPAGLRGVVLVAPAPPAPIGVTEQVQETVSHAYDNEEAVLQSIDLMLTRGGLTPELRRQVVEDSLRGGDEARLEWPRRGLVQDVSAGVSAIEVPVLVLAGSHDKVDPPTVLADHLLPLIPTATLTVLKDTGHLSPLEVPDQVAAHIGAFVAQL
Take B5: in data set [16], the Michaelis-Menten constant (Km) is 300 ± 0 µM, the catalytic constant (kcat) worked out at 2.9 ± 0.1 s⁻¹ and the kcat/Km stood at 9500 M⁻¹ s⁻¹.

B6: PpEST-1 (Pseudomonas putida KT2440) (protein)
chain: MRNRLVLLPGWGLGTAALEPLAASLRAQDARLQVELMPLPELAHSDVQAWIDHLDRKLPNDVWLGGWSLGGMLASALAHKRGDHCCGLLTLASNPSFLARPDWPHGMAEDTFGTFLDGCRNHTQVTLKRFRTLCSDGALQPRTLLRQLGVGVPETDPLYLATGLEVLAKLDTREALQAYDGPQLHLFAGSDALVPAEAAKALSELLPDVEVGMVEDSSHAFLLEYPQELAAGIKSFLHESGDD
For the molecule B6, in data set [12] (pH 8, 37°C), the Michaelis-Menten constant (Km) was determined as 3000 ± 400 µM, the kcat worked out at 3.1 ± 0.3 s⁻¹ and the specificity constant (kcat/Km) stood at 1000 M⁻¹ s⁻¹. In data set [13] (pH 8, 37°C), the Km was determined as 1400 ± 100 µM, the kcat worked out at 3.9 ± 0.2 s⁻¹ and the kcat/Km was 2800 M⁻¹ s⁻¹.

B7: PpEST-2 (Pseudomonas putida KT2440) (protein)
chain: MSTFVTRDGTSIYFKDWGSGKPVLFSHGWPLDADMWDSQMEFLASRGYRAIAFDRRGFGRSSQPWNGYDYDTFADDIAQLIEHLDLRDVTLVGFSMGGGDVSRYIARHGSERVAGLVLLGAVTPVFGKRDDNPDGVDLSVFEGIRAGLRADRAQFIADFATPFYGLNHGQQVSQGVQTQTLNIALMASIKGTLDCVTAFSETDFRPDMAKVDVPTLVIHGDDDQIVPFETTGKQAAELIRGAELKVYAGAPHGFAVTHAQQLNEDLLAFLQR
As for B7, in data set [12] (pH 9, 37°C), the Km was determined as 1000 ± 100 µM, the catalytic constant (kcat) amounted to 3 ± 0.1 s⁻¹ and the kcat/Km came to 3000 M⁻¹ s⁻¹. Further, in [13] (pH 9, 37°C), the Km is 1100 ± 100 µM, the turnover number (kcat) is 12.5 ± 0.5 s⁻¹ and the kcat/Km turned out to be 11400 M⁻¹ s⁻¹.
